1 molecule from patent US20030059827A1, “Engineered protein binding domains and methods and systems for their design and use” (priority 2001, published 2003) can be followed below.

The assay addresses Biotin-GG-KQTSV. In words: micro-calorimetry (isothermal titration).

B1: wild-type PDZ (PDZ3 of PSD095) domain, Q62108 302-402 (protein, mouse, UniProt Q62108 302-402, looked up)
chain: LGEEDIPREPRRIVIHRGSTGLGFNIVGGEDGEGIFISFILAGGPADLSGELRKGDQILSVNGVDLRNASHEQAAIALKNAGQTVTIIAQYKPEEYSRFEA
What is called Kd is the concentration at which binding is half-saturated. Low readings indicate tighter binding, high ones weaker binding. For the molecule B1, the Ka is 25700 M⁻¹ and the Kd turned out to be 39 µM.
